Measurements published in patent US20260242735A1 (UNIVERSIT T BASEL, published 2026).

Legend:
Assay in all cases: flow cytometry on HEK293-T, alanine scan
[1] = target: human CD33 S135A (human, UniProt P20138 18-364)
[2] = target: human CD33 W167A (human, UniProt P20138 18-364)
[3] = target: human CD33 H137A (human, UniProt P20138 18-364)
[4] = target: human CD33 L141A (human, UniProt P20138 18-364)
[5] = target: human CD33 R109A (human, UniProt P20138 18-364)
[6] = target: human CD33 T162A (human, UniProt P20138 18-364)
Sequence of human CD33 T162A (P20138 18-364 T162A limits assumed): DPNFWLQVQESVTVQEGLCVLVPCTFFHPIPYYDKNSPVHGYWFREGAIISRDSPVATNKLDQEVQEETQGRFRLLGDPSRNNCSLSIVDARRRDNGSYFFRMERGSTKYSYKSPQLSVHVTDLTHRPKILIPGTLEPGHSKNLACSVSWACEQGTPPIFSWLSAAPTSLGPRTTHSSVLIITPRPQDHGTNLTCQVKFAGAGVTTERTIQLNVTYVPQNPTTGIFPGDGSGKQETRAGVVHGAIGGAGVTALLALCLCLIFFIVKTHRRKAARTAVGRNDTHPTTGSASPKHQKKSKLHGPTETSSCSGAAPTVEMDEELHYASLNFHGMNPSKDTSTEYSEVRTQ

[7] = target: human CD33 R122A (human, UniProt P20138 18-364)
Sequence of human CD33 R122A (P20138 18-364 R122A limits assumed): as the sequence (P20138 18-364 T162A limits assumed) above, with R105A, A145T counted along it

[8] = target: human CD33 L93A (human, UniProt P20138 18-364)
Sequence of human CD33 L93A (P20138 18-364 L93A limits assumed): as the sequence (P20138 18-364 T162A limits assumed) above, with L76A, A145T counted along it

[9] = target: human CD33 D107A (human, UniProt P20138 18-364)
Sequence of human CD33 D107A (P20138 18-364 D107A limits assumed): as the sequence (P20138 18-364 T162A limits assumed) above, with D90A, A145T counted along it

[10] = target: human CD33 D95A (human, UniProt P20138 18-364)
Sequence of human CD33 D95A (P20138 18-364 D95A limits assumed): as the sequence (P20138 18-364 T162A limits assumed) above, with D78A, A145T counted along it

[11] = target: human CD33 N160A (human, UniProt P20138 18-364)
Sequence of human CD33 N160A (P20138 18-364 N160A limits assumed): as the sequence (P20138 18-364 T162A limits assumed) above, with N143A, A145T counted along it

[12] = target: human CD33 P145A (human, UniProt P20138 18-364)
Sequence of human CD33 P145A (P20138 18-364 P145A limits assumed): as the sequence (P20138 18-364 T162A limits assumed) above, with P128A, A145T counted along it

[13] = target: human CD33 S164A (human, UniProt P20138 18-364)
Sequence of human CD33 S164A (P20138 18-364 S164A limits assumed): as the sequence (P20138 18-364 T162A limits assumed) above, with A145T, S147A counted along it

[14] = target: human CD33 S131A (human, UniProt P20138 18-364)
Sequence of human CD33 S131A (P20138 18-364 S131A limits assumed): as the sequence (P20138 18-364 T162A limits assumed) above, with S114A, A145T counted along it

[15] = target: human CD33 H157A (human, UniProt P20138 18-364)
Sequence of human CD33 H157A (P20138 18-364 H157A limits assumed): as the sequence (P20138 18-364 T162A limits assumed) above, with H140A, A145T counted along it

[16] = target: human CD33 G156A (human, UniProt P20138 18-364)
Sequence of human CD33 G156A (P20138 18-364 G156A limits assumed): as the sequence (P20138 18-364 T162A limits assumed) above, with G139A, A145T counted along it

[17] = target: human CD33 N100A (human, UniProt P20138 18-364)
Sequence of human CD33 N100A (P20138 18-364 N100A limits assumed): as the sequence (P20138 18-364 T162A limits assumed) above, with N83A, A145T counted along it

[18] = target: human CD33 D112A (human, UniProt P20138 18-364)
Sequence of human CD33 D112A (P20138 18-364 D112A limits assumed): as the sequence (P20138 18-364 T162A limits assumed) above, with D95A, A145T counted along it

[19] = target: human CD33 E121A (human, UniProt P20138 18-364)
Sequence of human CD33 E121A (P20138 18-364 E121A limits assumed): as the sequence (P20138 18-364 T162A limits assumed) above, with E104A, A145T counted along it

[20] = target: human CD33 S115A (human, UniProt P20138 18-364)
Sequence of human CD33 S115A (P20138 18-364 S115A limits assumed): as the sequence (P20138 18-364 T162A limits assumed) above, with S98A, A145T counted along it

[21] = target: human CD33 Y129A (human, UniProt P20138 18-364)
Sequence of human CD33 Y129A (P20138 18-364 Y129A limits assumed): as the sequence (P20138 18-364 T162A limits assumed) above, with Y112A, A145T counted along it

[22] = target: human CD33 K159A (human, UniProt P20138 18-364)
Sequence of human CD33 K159A (P20138 18-364 K159A limits assumed): as the sequence (P20138 18-364 T162A limits assumed) above, with K142A, A145T counted along it

[23] = target: human CD33 R110A (human, UniProt P20138 18-364)
Sequence of human CD33 R110A (P20138 18-364 R110A limits assumed): as the sequence (P20138 18-364 T162A limits assumed) above, with R93A, A145T counted along it

[24] = target: human CD33 I147A (human, UniProt P20138 18-364)
Sequence of human CD33 I147A (P20138 18-364 I147A limits assumed): as the sequence (P20138 18-364 T162A limits assumed) above, with I130A, A145T counted along it

[25] = target: human CD33 K146A (human, UniProt P20138 18-364)
Sequence of human CD33 K146A (P20138 18-364 K146A limits assumed): as the sequence (P20138 18-364 T162A limits assumed) above, with K129A, A145T counted along it

[26] = target: human CD33 T139A (human, UniProt P20138 18-364)
Sequence of human CD33 T139A (P20138 18-364 T139A limits assumed): as the sequence (P20138 18-364 T162A limits assumed) above, with T122A, A145T counted along it

[27] = target: human CD33 V165A (human, UniProt P20138 18-364)
Sequence of human CD33 V165A (P20138 18-364 V165A limits assumed): as the sequence (P20138 18-364 T162A limits assumed) above, with A145T, V148A counted along it

[28] = target: human CD33 R144A (human, UniProt P20138 18-364)
Sequence of human CD33 R144A (P20138 18-364 R144A limits assumed): as the sequence (P20138 18-364 T162A limits assumed) above, with R127A, A145T counted along it

[29] = target: human CD33 F118A (human, UniProt P20138 18-364)
Sequence of human CD33 F118A (P20138 18-364 F118A limits assumed): as the sequence (P20138 18-364 T162A limits assumed) above, with F101A, A145T counted along it

[30] = target: human CD33 S158A (human, UniProt P20138 18-364)
Sequence of human CD33 S158A (P20138 18-364 S158A limits assumed): as the sequence (P20138 18-364 T162A limits assumed) above, with S141A, A145T counted along it

[31] = target: human CD33 L148A (human, UniProt P20138 18-364)
Sequence of human CD33 L148A (P20138 18-364 L148A limits assumed): as the sequence (P20138 18-364 T162A limits assumed) above, with L131A, A145T counted along it

[32] = target: human CD33 T152A (human, UniProt P20138 18-364)
Sequence of human CD33 T152A (P20138 18-364 T152A limits assumed): as the sequence (P20138 18-364 T162A limits assumed) above, with T135A, A145T counted along it

[33] = target: human CD33 C101A (human, UniProt P20138 18-364)
Sequence of human CD33 C101A (P20138 18-364 C101A limits assumed): as the sequence (P20138 18-364 T162A limits assumed) above, with C84A, A145T counted along it

Sequence of human CD33 W167A (P20138 18-364 W167A limits assumed): as the sequence (P20138 18-364 T162A limits assumed) above, with A145T, W150A counted along it
Sequence of human CD33 H137A (P20138 18-364 H137A limits assumed): as the sequence (P20138 18-364 T162A limits assumed) above, with H120A, A145T counted along it
Sequence of human CD33 R109A (P20138 18-364 R109A limits assumed): as the sequence (P20138 18-364 T162A limits assumed) above, with R92A, A145T counted along it
Sequence of human CD33 S135A (P20138 18-364 S135A limits assumed): as the sequence (P20138 18-364 T162A limits assumed) above, with S118A, A145T counted along it
Sequence of human CD33 L141A (P20138 18-364 L141A limits assumed): as the sequence (P20138 18-364 T162A limits assumed) above, with L124A, A145T counted along it

B1: Refmab #4 (antibody, V domains shown)
VH: QVQLVQSGAEVKKPGESVKVSCKASGYTFTNYGMNWVKQAPGQGLEWMGWINTYTGEPTYADKFQGRVTMTTDTSTSTAYMEIRNLGGDDTAVYYCARWSWSDGYYVYFDYWGQGTSVTVSS
VL: DIVMTQSPDSLTVSLGERTTINCKSSQSVLDSSTNKNSLAWYQQKPGQPPKLLLSWASTRESGIPDRFSGSGSGTDFTLTIDSPQPEDSATYYCQQSAHFPITFGQGTRLEIK
notes: The alanine scan used IgG or Fab
- Mean % WT Binding [1]: 109 % WT binding
- Mean % WT Binding [2]: 112 % WT binding
- Mean % WT Binding [3]: 108 % WT binding
- Mean % WT Binding [4]: 93.7 % WT binding
- Mean % WT Binding [5]: 99.5 % WT binding
- Mean % WT Binding [6]: 79.9 % WT binding
- Mean % WT Binding [7]: 23 % WT binding
- Mean % WT Binding [8]: 63.9 % WT binding
- Mean % WT Binding [9]: 93 % WT binding
- Mean % WT Binding [10]: 90.9 % WT binding
- Mean % WT Binding [11]: 102 % WT binding
- Mean % WT Binding [12]: 78.8 % WT binding
- Mean % WT Binding [13]: 112 % WT binding
- Mean % WT Binding [14]: 134 % WT binding
- Mean % WT Binding [15]: 97.4 % WT binding
- Mean % WT Binding [16]: 67.2 % WT binding
- Mean % WT Binding [17]: 123 % WT binding
- Mean % WT Binding [18]: 36 % WT binding
- Mean % WT Binding [19]: 77.3 % WT binding
- Mean % WT Binding [20]: 36.4 % WT binding
- Mean % WT Binding [21]: 319 % WT binding
- Mean % WT Binding [22]: 118 % WT binding
- Mean % WT Binding [23]: 88.4 % WT binding
- Mean % WT Binding [24]: 58.7 % WT binding
- Mean % WT Binding [25]: 122 % WT binding
- Mean % WT Binding [26]: 84.3 % WT binding
- Mean % WT Binding [27]: 117 % WT binding
- Mean % WT Binding [28]: 99.7 % WT binding
- Mean % WT Binding [29]: 6 % WT binding
- Mean % WT Binding [30]: 98 % WT binding
- Mean % WT Binding [31]: 113 % WT binding
- Mean % WT Binding [32]: 110 % WT binding
- Mean % WT Binding [33]: 1.5 % WT binding
